Values of other authors as cited in PMC4932920.

Assays:
[1] = biological target: T1, His112 (UniProt position 113, VTLAAHLPAEF); test: NMR
[2] = biological target: T2, His20 (UniProt position 21, GKVGAHAGEYG); test: NMR
[3] = biological target: T3, His72 (UniProt position 73, TNAVAHVDDMP); test: NMR
[4] = biological target: T4, His89 (UniProt position 90, SDLHAHKLRVD); test: NMR
[5] = biological target: T5, His50 (UniProt position 51, HFDLSHGSAQV); test: NMR
[6] = biological target: T1, His112; test: other (H/D exchange of individual histidine residues)
[7] = biological target: T2, His20; test: as above
[8] = biological target: T3, His72; test: as above
[9] = biological target: T4, His89; test: as above
[10] = biological target: T5, His50; test: as above
[11] = biological target: His103 (UniProt position 104, FKLLSHCLLVT); test: other (histidine H/D exchange)
[12] = biological target: T6, His77 (UniProt position 78, SDGLAHLDNLK); test: NMR
[13] = biological target: T7, His97 (UniProt position 98, HCDKLHVDPEN); test: NMR
[14] = biological target: T8, His143 (UniProt position 144, ANALAHKYH--); test: NMR
[15] = biological target: T9, His146 (UniProt position 147, LAHKYH-----); test: NMR
[16] = biological target: His117 (UniProt position 118, CVLAHHFGKEF); test: NMR
[17] = biological target: T6, His77; test: other (H/D exchange of individual histidine residues)
[18] = biological target: T7, His97; test: as above
[19] = biological target: T8, His143; test: as above
[20] = biological target: T9, His146; test: as above
[21] = carbonmonoxy (CO-liganded) hemoglobin, R state

Hemoglobin A (adult human hemoglobin), alpha chain (Homo sapiens)
pKa [1, 21]: 7.53
pKa ([1]; deoxy hemoglobin, T state): 7.49
pKa [2, 21]: 7.08
pKa ([2]; deoxy hemoglobin, T state): 7.02
pKa [3, 21]: 7.27
pKa ([3]; deoxy hemoglobin, T state): 7.47
pKa [4, 21]: 6.25
pKa ([4]; deoxy hemoglobin, T state): 6.80
pKa [5, 21]: 6.90
pKa ([5]; deoxy hemoglobin, T state): 7.14
pKa [6, 21]: 8.1
pKa ([6]; deoxy hemoglobin, T state): 8.1
pKa [7, 21]: 7.0
pKa ([7]; deoxy hemoglobin, T state): 7.6
pKa [8, 21]: 7.1
pKa ([8]; deoxy hemoglobin, T state): 7.3
pKa [9, 21]: 5.6
pKa ([9]; deoxy hemoglobin, T state): 7.2
pKa [10, 21]: 7.1
pKa ([10]; deoxy hemoglobin, T state): 7.2

Hemoglobin A (adult human hemoglobin), alpha chain residue titrated (Homo sapiens)
pKa [11, 21]: 7.1
pKa ([11]; deoxy hemoglobin, T state): 7.1

Hemoglobin A (adult human hemoglobin), beta chain (Homo sapiens)
pKa [12, 21]: 7.79
pKa ([12]; deoxy hemoglobin, T state): 7.47
pKa [13, 21]: 7.75
pKa ([13]; deoxy hemoglobin, T state): 8.01
pKa [14, 21]: 5.57
pKa ([14]; deoxy hemoglobin, T state): 4.70
pKa [15, 21]: 6.42
pKa ([15]; deoxy hemoglobin, T state): 7.93
pKa [16, 21]: 6.39
pKa ([16]; deoxy hemoglobin, T state): 6.43
pKa [17, 21]: 7.8
pKa ([17]; deoxy hemoglobin, T state): 7.8
pKa [18, 21]: 6.4
pKa ([18]; deoxy hemoglobin, T state): 6.4
pKa [19, 21]: 6.1
pKa ([19]; deoxy hemoglobin, T state): 5.6
pKa [20, 21]: 7.0
pKa ([20]; deoxy hemoglobin, T state): 8.1
